Reference: article PMC3064162

Molecular target: human C3b (human)
Assay: SPR

Kd: > 35 µM
Substance: (R78G)FH1–4^V62 (from UniProt P08603 19-263) (domain or fragment)
